From US20090196872A1 (KIRIN BEER, published 2009) come the findings set out here.

B1: human anti-M2 monoclonal antibody C40G1 (antibody, V domains shown)
VH: QLQLQESGPGLVKPSETLSLTCTVSGGSISSSFYYCGWIRQPPGKGLEWIGSIYYRGSTYYNPSLKSRVTISVDTSKNQFSLKLSSVTAADTAVYYCARRVTMVRGVKGDYFDYWGQGTLVTVSS
VL: DIQMTQSPSSLSASVGDRVTITCRASQGISSWLAWYQQKPEKVPKSLIYAASSLQSGVPSRFSGSGSGTDFTLTISSLQPEDFATYYCQQYNYYPLTFGGGTKVEIKR
B2: human anti-M2 monoclonal antibody L66 (antibody, V domains shown)
VH: EVQLVESGGGVVRPGGSLRLSCAASGFTFDDYGMSWVRQAPGKGLEWVSGINWNGGSTGYADSVKGRFTISRDNAKNSLYLQMNSLRAEDTALYYCARDRVTMVRGVIMDYYGMDVWGQGTTVTVSS
VL: QTVVTQEPSLTVSPRGTVTLTCSSSTGAVTSGYYPGWFQLKPGQAPMSLIYSARKKHSWTPARFSGSLLGGKAALTLSGVQPEDEAEYYCLLYYGGAYVFGTGTKVTVLG
B3: human anti-M2 monoclonal antibody no. Z3G1 (recombinant IgG1 type Z3, CHO; ATCC PTA-5967) (antibody, V domains shown)
VH: QVQLVQSGAEVKKPGASVKVSCKASGYTFTSYGISWVRQAPGQGLEWMGWISAYNGNTNYAQKLQGRVTMTTDTSTSTAYMELRSLRSDDTAVYYCARAAAGGYFQHWGQGTLVTVSS
VL: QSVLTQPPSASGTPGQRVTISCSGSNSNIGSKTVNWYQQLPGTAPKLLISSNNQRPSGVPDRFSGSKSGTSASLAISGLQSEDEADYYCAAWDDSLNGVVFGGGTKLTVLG
B4: human anti-M2 monoclonal antibody N547 (antibody, V domains shown)
VH: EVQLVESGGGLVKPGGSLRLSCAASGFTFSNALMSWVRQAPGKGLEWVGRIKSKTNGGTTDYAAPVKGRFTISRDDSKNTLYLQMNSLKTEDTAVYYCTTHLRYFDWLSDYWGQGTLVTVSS
VL: QSVLTQPPSMSAAPGQKVTISCSGSSSNIGNNYISWYQQLPGTAPKVLIYDNNKRPSGIPDRFSGSKSGTSATLGITGLQTGDEADYYCGSWDSSLSAGVFGTGTKVTVLG

The term Kd denotes the concentration at which binding is half-saturated. Lower therefore signals a tighter complex.

For this assay, the target named is T1, M2 protein expressed on A/PR/8/34 infected MDCK cells (influenza A virus A/PR/8/34, UniProt P06821 1-97).
T1 construct: whole, on cells
T1 sequence (P06821 whole entry): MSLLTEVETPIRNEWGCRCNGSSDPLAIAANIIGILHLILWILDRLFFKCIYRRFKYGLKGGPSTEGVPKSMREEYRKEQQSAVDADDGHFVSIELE
Nature of the assay: cell-based ELISA, half-saturating antibody concentration.
Molecule B1 came in with a dissociation constant (Kd) of 0.519 nM. To B2 belongs 0.563 nM; to B3, 0.497 nM; to B4, 1.05 nM.
